Assay [1] deals with S1-Fc (SARS-CoV-2 S1 protein, Fc fusion) (SARS-CoV-2, UniProt P0DTC2 16-685). Kind of assay: SPR (Biacore T200), S1 captured on anti-human Fc chip, scFv injected. Background: Surface plasmon resonance follows binding to a sensor surface in real time, without labels.
For assay [2], the target named is T1, RBD of SARS-CoV-2 spike protein S1 (recombinant, construct not stated) (SARS-CoV-2, UniProt P0DTC2 328-533).
T1 construct: also called SARS-COV-2, RBD; RBD-AF647
The experiment in a line: ELISA, RBD coated, scFv titrated, anti-Flag HRP.

In assay [3] the target is T2, S1 protein of SARS-CoV-2 (recombinant, construct not stated) (SARS-CoV-2, UniProt P0DTC2 16-685). Kind of assay: ELISA, S1 coated, scFv titrated, anti-Flag HRP. A general note: An ELISA detects its analyte on a solid surface through an enzyme-linked reagent.
Assay [4] addresses T3, SARS-CoV-2-RBD (328-533)-Fc (SARS-CoV-2).
T3 construct: also called RBD-Fc
The experiment in a line: SPR (Biacore T200), RBD captured on anti-human Fc chip, scFv injected.

Assay [5] addresses T2, S1 protein of SARS-CoV-2 (recombinant, …).

The record followed here is patent publication US20230220053A1 (published 2023).

B1: 2020EP64-C08 scFv (scFv)
scFv: QMQLVQSGAEVKKPGSSVKVSCKASGGTFSSYAISWVRQAPRQGLEWMGRIIPILGIANYAQKFQGRVTITADKSTSTAYMELSSLRSEDTAVYYCASSYGGNQLWGQGTLVTVSSGGGGSGGGGSGGGGSQSVLTQPPSASGTPGQRVTISCSGSDSNIGTNTVNWYQQVPGTAPKVLIYSTHQRPSGVPDRFSASKSGTSASLAISGLQSEDEADYYCSSWDVSLNAWVFGGGTKVTVL
As usually defined, the Kd is the concentration at which binding is half-saturated. Read a low Kd as tighter binding. As usually defined, the koff is a measure of how fast the partners let go of each other. High values mean fast dissociation, low ones slow dissociation. The kon is the second-order rate constant of association. As a reminder, the EC50 is the concentration needed to bring the measured effect to its halfway point. As for B1, in assay [1], the Kd is 73.6 nM, the dissociation rate constant (koff) worked out at 0.00693 s⁻¹ and the kon is 94100 M⁻¹ s⁻¹. Besides, the EC50 in assay [2] worked out at 8.73 nM. Moreover, the half-maximal effective concentration (EC50) in assay [3] was 40.2 nM.

B2: 2020EP60-A12 scFv (scFv)
scFv: EVQLVESGGGVVQPGRSLRLSCAASGFTFSSYGMHWVRQAPGKGLEWVAVISYDGSNKYYADSVKGRFTISRDNSKNTLYLQMNSLRAEDTAVYYCAKGLEYYFDYWGQGTLVTVSSGGGGSGGGGSGGGGSSYELTQPPSLSVSPGQTARITCSGDALPEQYAYWYQQKPGQAPVLVIYKDSERPSGIPERFSGSSSGTTVTLTISGVQAEDEADYYCQAWDSSTVVFGGGTKLTVL
Turning to B2, the values for the concentration for a half-maximal effect (EC50) in assay [2] and in assay [3] were 4.99 nM and 27.3 nM, respectively.

B3: 2020EP61-A08 scFv (scFv)
scFv: QVQLVQSGAEVKKPGASVKVSCKASGYTFTSYYMHWVRQAPGQGLEWMGIINPSGGSTSYAQKFQGRVTMTRDTSTSTVYMELSSLRSEDTAVYYCARESGNYYYDSSGYTFDYWGQGTLVTVSSGGGGSGGGGSGGGGSSYVLTQPLSVSVALGQTARITCGGNNIGSKNVHWYQQKPGQAPVLVIYYDSDRPSGIPERFSGSNSGNTATLTISGTQAMDEADYYCQAWDSSTVVFGGGTKLTVL
In the case of B3, the EC50 in assay [2] was 2.52 nM. In assay [4], this molecule gave a Kd of 69.4 nM, a dissociation rate constant (koff) of 0.00191 s⁻¹ and a kon of 27500 M⁻¹ s⁻¹. For the same molecule, the EC50 in assay [3] is 5.74 nM.

B4: 2020EP66-A07 scFv (scFv)
scFv: EVQLVQSGAEVKKPGSSVKVSCKASGGTFSSYAISWVRQAPGQGLEWMGGIIPIFGTANYAQKFQGRVTITADESTSTAYMELSSLRSEDTAVYYCASGGDGYNYDYYYYGMDVWGQGTTVTVSSGGGGSGGGGSGGGGSSYELTQPPSVSVSPGQTATITCSGEKLGDKYSFWYQQKPGQSPVMVMYQDDQRPSGTPERFSGSNSGNTATLTISGTRATDEADYYCQAWDNSASVFGSGTKLTVL
On to B4, for which, in assay [1], the Kd is 2.3 nM, the koff turned out to be 0.00142 s⁻¹ and the kon was 614000 M⁻¹ s⁻¹. In assay [2], the binding result is given as “no binding (tested: 200 nM (highest concentration tested))”. Also, in assay [3], the half-maximal effective concentration (EC50) stood at 0.525 nM.

B5: 2020EP60-F05 scFv (scFv)
scFv: QVQLVESGGGVVQPGGSLRLSCAASGFTFSSYGMHWVRQAPGKGLEWVAVISYDGSNKYYADSVKGRFTISRDNSKNTLYLQMNSLRAEDTAVYYCAKARVALGYFDWLLYDGMDVWGQGTTVTVSSGGGGSGGGGSGGGGSSSELTQPPSVSVSPGQTASITCSGDKLGNKYVFWYQQKPGQSPILVIYQDNRRPSGIPERFSGSNSGNTATLTISGDPAMDEADYYCQAWDSSTVVFGGGTKLTVL
For B5, the EC50 in assay [2] is 0.649 nM. Further, in assay [4], the Kd was 6.14 nM, the koff came to 0.00302 s⁻¹ and the kon was 491000 M⁻¹ s⁻¹. The EC50 in assay [3] came to 1.38 nM.

B6: 2020EP71-E04 scFv (scFv)
scFv: QVQLVQSGGGVVQPGRSLRLSCAASGFTFSSYGMHWVRQAPGKGLEWVAVISYDGSNKYYADSVKGRFTISRDNSKNTLYLQMNSLRAEDTAVYYCAKDRAYYYGYYYYYYGMDVWGQGTTVTVSSGGGGSGGGGSGGGGSQSVLTQPPSVSGAPGQRVTISCTGSSSNIGAGYDVHWYQQLPGTAPKLLIYGNSNRPSGVPDRFSGSKSGTSASLAITGLQAEDEADYYCATWDDSLSGPVFGGGTKVTVL
In assay [1], B6 returned a Kd of 37.6 nM, a koff of 0.0019 s⁻¹ and an association rate constant (kon) of 50600 M⁻¹ s⁻¹. Moreover, in assay [2], the binding result is listed as “no binding (tested: 200 nM (highest concentration tested))”. The EC50 in assay [3] is 5.03 nM.

B7: 2020EP75-E02 scFv (scFv)
scFv: QMQLVQSGAEVKKPGSSVKVSCKASGGTFSSYAISWVRQAPGQGLEWMGGIIPIFGTANYAQKFQGRVTITADKSTSTAYMELSSLRSEDTAVYYCARPRDYRAQYYFDYWGQGTLVTVSSGGGGSGGGGSGGGGSDIVMTQSPSSLSASVGDRVTITCRAGQDIDTSVNWYQLKPGKAPRLLIYASSSLQTGVPSRFSGGGSGAEFTLTISSLQPEDFATYFCQQTFSTSVTFGGGTKVEIK
Take B7: in assay [1], the Kd turned out to be 4.46 nM, the koff is 0.00174 s⁻¹ and the kon turned out to be 390000 M⁻¹ s⁻¹. Besides, in assay [2], the binding result is “no binding (tested: 200 nM (highest concentration tested))”. The EC50 in assay [3] is 0.225 nM.

B8: 2020EP53-D06 scFv (scFv)
scFv: QVQLVQSGGGVVQPGRSLRLSCAASGFTFSSYAMHWVRQAPGKGLEWVAVISYDGSNKYYADSVKGRFTISRDNSKNTLYLQMNSLRAEDTAVYYCARDGEDGYNYISPFDYWGQGTLVTVSSGGGGSGGGGSGGGGSSYELTQPPSVSVAPGETARITCRGNDIGSKSVHWYQQKPGQAPVLVLYYDSDRPSGIPERFSGSNSGNTATLTISSVEAGDEADYYCQVWDIDVVFGGGTKLTVL
B8: the Kd in assay [1] is 7.84 nM; in assay [4], 4.4 nM. Moreover, the koff turned out to be 0.00204 s⁻¹ in assay [1] and 0.0011 s⁻¹ in assay [4]. Also, the figures for the kon in assay [1] and in assay [4] were 260000 M⁻¹ s⁻¹ and 251000 M⁻¹ s⁻¹, respectively. The EC50 in assay [2] came to 0.818 nM; in assay [3], 0.511 nM.

B9: 2020EP64-G10 scFv (scFv)
scFv: QVQLVQSGGGVVQPGRSLRLSCAASGFTFSSYAMHWVRQAPGKGLEWVAVISYDGSNKYYADSVKGRFTISRDNSKNTLYLQMNSLRAEDTAVYYCARDGEDGYNYISPFDYWGQGTLVTVSSGGGGSGGGGSGGGRSSYELTQPPSVSVAPGETARITCRGNDIGSKSVHWYQQKPGQAPVLVLYYDSDRPSGIPERFSGSNSGNTATLTISSVEAGDEADYYCHVWDIDVVFGGGTKLTVL
In assay [1], B9 had a Kd of 11.2 nM, a koff of 0.00242 s⁻¹ and a kon of 215000 M⁻¹ s⁻¹. In addition, in assay [2], the EC50 stood at 0.663 nM. Also, in assay [3], the EC50 came to 0.936 nM.

B10: 2020EP54-B02 scFv (scFv)
scFv: QVQLVQSGAEVKKPGASVKVSCKASGYTFIGYYMHWMRQAPGQGLEWMGRINPNSGGTNYAEKFQGRVTMTRDTSISTAYMELSRLTFNDTAVYYCARWDSSSWKFDSWGQGTLVTVSSGGGGSGGGGSGGGGSEIVLTQSPSSLSASVGDRVTITCQASQDISNYLNWYQQKPGKAPKLLIYDASNLETGVPSRFSGSGSGTDFTFTISSLQPEDIATYYCQQYDNLPITFGQGTRLEIK
In the case of B10, in assay [1], the Kd came to 91.8 nM, the koff came to 0.00366 s⁻¹ and the kon is 39900 M⁻¹ s⁻¹. In assay [2], the EC50 amounted to 75.9 nM. In addition, in assay [4], the Kd stood at 69.5 nM, the dissociation rate constant (koff) was 0.00242 s⁻¹ and the kon came to 34900 M⁻¹ s⁻¹.

B11: 2020EP54-H01 scFv (scFv)
scFv: QVQLVESGGGVVQPGRSLRLSCAASGFTFSSYGMHWVRQAPGKGLEWVAVISYDGSNKYYADSVKGRFTISRDNSKNTLYLQMNSLRAEDTAVYYCAKGRGWYLDYWGQGTLVTVSSGGGGSGGGGSGGGGSNFMLTQPPSVSVSPGQTASITCSGDKLGDKYACWYQQKPGQSPVLVMYEDYKRPSGIPARFSGSNSGNTATLTISRVEGGDEGDYYCQVWDSRGPEVIFGGGTKLTVL
notes: also called 2020EP054-H01
For orientation: IC50 means the midpoint of a concentration-inhibition curve. In assay [1], B11 returned a Kd of 52.5 nM, a koff of 0.0052 s⁻¹ and a kon of 99000 M⁻¹ s⁻¹. In assay [2], the EC50 was 5.77 nM. Moreover, the IC50 in assay [5] is 38.4 nM. In assay [4], the Kd turned out to be 31.4 nM, the off-rate (koff) was determined as 0.00265 s⁻¹ and the kon is 84300 M⁻¹ s⁻¹. The EC50 in assay [3] worked out at 20.4 nM.

B12: 2020EP66-D03 scFv (scFv)
scFv: QVQLQQWGAGLLKPSETLSLTCAVYGGSFSGYYWSWIRQPPGKGLEWIGEINHSGSTNYNPSLKSRVTISVDTSKNQFSLKLSSVTAADTAVYYCARGPPLWNYGKGFDYWGQGTLVTVSSGGGGSGKGGSGGGGSQPVLTQPPSASGTPGQRVTISCSGSSSNIGSNYVYWYQQLPRTAPKLLIYRNNQRPSGVPDRFSGSKSGTSASLAISGLRSEDEADYYCAAWDDSLSAWVFGGGTKLTVL
As to B12, in assay [1], the Kd was 19.5 nM, the koff was 0.00256 s⁻¹ and the kon is 131000 M⁻¹ s⁻¹. Also, in assay [2], the binding result is reported as “no binding (tested: 200 nM (highest concentration tested))”. For the same molecule, in assay [3], the EC50 came out at 0.514 nM.
